Experimental data reported in IntAct's records for PubMed 20059542.

B1: Ubiquitin domain-containing protein DSK2 (Saccharomyces cerevisiae), P48510 (parent)
chain: MSLNIHIKSGQDKWEVNVAPESTVLQFKEAINKANGIPVANQRLIYSGKILKDDQTVESYHIQDGHSVHLVKSQPKPQTASAAGANNATATGAAAGTGATPNMSSGQSAGFNPLADLTSARYAGYLNMPSADMFGPDGGALNNDSNNQDELLRMMENPIFQSQMNEMLSNPQMLDFMIQSNPQLQAMGPQARQMLQSPMFRQMLTNPDMIRQSMQFARMMDPNAGMGSAGGAASAFPAPGGDAPEEGSNTNTTSSSNTGNNAGTNAGTNAGANTAANPFASLLNPALNPFANAGNAASTGMPAFDPALLASMFQPPVQASQAEDTRPPEERYEHQLRQLNDMGFFDFDRNVAALRRSGGSVQGALDSLLNGDV
partner: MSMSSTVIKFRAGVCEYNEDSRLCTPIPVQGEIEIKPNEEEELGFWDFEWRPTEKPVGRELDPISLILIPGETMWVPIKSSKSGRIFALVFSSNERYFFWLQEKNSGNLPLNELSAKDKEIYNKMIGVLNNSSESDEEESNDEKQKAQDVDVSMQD
B2: UV excision repair protein RAD23 (Saccharomyces cerevisiae), P32628 (parent)
chain: MVSLTFKNFKKEKVPLDLEPSNTILETKTKLAQSISCEESQIKLIYSGKVLQDSKTVSECGLKDGDQVVFMVSQKKSTKTKVTEPPIAPESATTPGRENSTEASPSTDASAAPAATAPEGSQPQEEQTATTERTESASTPGFVVGTERNETIERIMEMGYQREEVERALRAAFNNPDRAVEYLLMGIPENLRQPEPQQQTAAAAEQPSTAATTAEQPAEDDLFAQAAQGGNASSGALGTTGGATDAAQGGPPGSIGLTVEDLLSLRQVVSGNPEALAPLLENISARYPQLREHIMANPEVFVSMLLEAVGDNMQDVMEGADDMVEGEDIEVTGEAAAAGLGQGEGEGSFQVDYTPEDDQAISRLCELGFERDLVIQVYFACDKNEEAAANILFSDHAD

Variants of: B1
Conditions: with rpn13_yeast RPN13, O13563

Variant	effect of a mutation on the interaction
MSLNIHIKSGQDKWEVNVAPESTVLQFKEAINKANGIPVANQRLIYSGKILKDDQTVESYHIQDGHSVHAVKSQPKPQTASAAGANNATATGAAAGTGATPNMSSGQSAGFNPLADLTSARYAGYLNMPSADMFGPDGGALNNDSNNQDELLRMMENPIFQSQMNEMLSNPQMLDFMIQSNPQLQAMGPQARQMLQSPMFRQMLTNPDMIRQSMQFARMMDPNAGMGSAGGAASAFPAPGGDAPEEGSNTNTTSSSNTGNNAGTNAGTNAGANTAANPFASLLNPALNPFANAGNAASTGMPAFDPALLASMFQPPVQASQAEDTRPPEERYEHQLRQLNDMGFFDFDRNVAALRRSGGSVQGALDSLLNGDV [L70A]	decreasing interaction

Variants of: B1
Conditions: with rpn13_yeast RPN13, O13563
Remark: another data set of the same source

Variant	effect of a mutation on the interaction
MSLNIHIKSGQDKWEVNVAPESTVLQFKEAINKANGIPVANQRLIYSGKILKDDQTVESYHIQDGHSVHAVKSQPKPQTASAAGANNATATGAAAGTGATPNMSSGQSAGFNPLADLTSARYAGYLNMPSADMFGPDGGALNNDSNNQDELLRMMENPIFQSQMNEMLSNPQMLDFMIQSNPQLQAMGPQARQMLQSPMFRQMLTNPDMIRQSMQFARMMDPNAGMGSAGGAASAFPAPGGDAPEEGSNTNTTSSSNTGNNAGTNAGTNAGANTAANPFASLLNPALNPFANAGNAASTGMPAFDPALLASMFQPPVQASQAEDTRPPEERYEHQLRQLNDMGFFDFDRNVAALRRSGGSVQGALDSLLNGDV [L70A]	decreasing interaction strength
MSLNIHIKSGQDKWEVNVAPESTVLQFKEAINKANGIPVANQRLIYSGKILKDDQTVESYHIQDGHSVHLAKSQPKPQTASAAGANNATATGAAAGTGATPNMSSGQSAGFNPLADLTSARYAGYLNMPSADMFGPDGGALNNDSNNQDELLRMMENPIFQSQMNEMLSNPQMLDFMIQSNPQLQAMGPQARQMLQSPMFRQMLTNPDMIRQSMQFARMMDPNAGMGSAGGAASAFPAPGGDAPEEGSNTNTTSSSNTGNNAGTNAGTNAGANTAANPFASLLNPALNPFANAGNAASTGMPAFDPALLASMFQPPVQASQAEDTRPPEERYEHQLRQLNDMGFFDFDRNVAALRRSGGSVQGALDSLLNGDV [V71A]	decreasing interaction strength
MSLNIHIKSGQDKWEVNVAPESTVLQFKEAINKANGIPVANQRAAYSGKILKDDQTVESYHIQDGHSVHLVKSQPKPQTASAAGANNATATGAAAGTGATPNMSSGQSAGFNPLADLTSARYAGYLNMPSADMFGPDGGALNNDSNNQDELLRMMENPIFQSQMNEMLSNPQMLDFMIQSNPQLQAMGPQARQMLQSPMFRQMLTNPDMIRQSMQFARMMDPNAGMGSAGGAASAFPAPGGDAPEEGSNTNTTSSSNTGNNAGTNAGTNAGANTAANPFASLLNPALNPFANAGNAASTGMPAFDPALLASMFQPPVQASQAEDTRPPEERYEHQLRQLNDMGFFDFDRNVAALRRSGGSVQGALDSLLNGDV [L44A;I45A]	disrupting interaction strength
MSLNIHIKSGQDKWEVNVAPESTVLQFKEAINKANGIPVANQRLIYSGKILKDDQTVESYHIQDGHSVHAAKSQPKPQTASAAGANNATATGAAAGTGATPNMSSGQSAGFNPLADLTSARYAGYLNMPSADMFGPDGGALNNDSNNQDELLRMMENPIFQSQMNEMLSNPQMLDFMIQSNPQLQAMGPQARQMLQSPMFRQMLTNPDMIRQSMQFARMMDPNAGMGSAGGAASAFPAPGGDAPEEGSNTNTTSSSNTGNNAGTNAGTNAGANTAANPFASLLNPALNPFANAGNAASTGMPAFDPALLASMFQPPVQASQAEDTRPPEERYEHQLRQLNDMGFFDFDRNVAALRRSGGSVQGALDSLLNGDV [L70A;V71A]	decreasing interaction strength

Variants of: B1
Conditions: with rpn13_yeast RPN13, O13563
Remark: another data set of the same source

Variant	effect of a mutation on the interaction
MSLNIHIKSGQDKWEVNVAPESTVLQFKEAINKANGIPVANQRLIYSGKILKDDQTVESYHIQDGHSVHLAKSQPKPQTASAAGANNATATGAAAGTGATPNMSSGQSAGFNPLADLTSARYAGYLNMPSADMFGPDGGALNNDSNNQDELLRMMENPIFQSQMNEMLSNPQMLDFMIQSNPQLQAMGPQARQMLQSPMFRQMLTNPDMIRQSMQFARMMDPNAGMGSAGGAASAFPAPGGDAPEEGSNTNTTSSSNTGNNAGTNAGTNAGANTAANPFASLLNPALNPFANAGNAASTGMPAFDPALLASMFQPPVQASQAEDTRPPEERYEHQLRQLNDMGFFDFDRNVAALRRSGGSVQGALDSLLNGDV [V71A]	decreasing interaction

Variants of: B2
Conditions: with ubc_human UBC

Variant	effect of a mutation on the interaction
MVSLTFKNFKKEKVPLDLEPSNTILETKTKLAQSISCEESQIKLIYSGKVLQDSKTVSECGLKDGDQVVFMVSQKKSTKTKVTEPPIAPESATTPGRENSTEASPSTDASAAPAATAPEGSQPQEEQTATTERTESASTPGFVVGTERNETIERIMEAAAQREEVERALRAAFNNPDRAVEYLLMGIPENLRQPEPQQQTAAAAEQPSTAATTAEQPAEDDLFAQAAQGGNASSGALGTTGGATDAAQGGPPGSIGLTVEDLLSLRQVVSGNPEALAPLLENISARYPQLREHIMANPEVFVSMLLEAVGDNMQDVMEGADDMVEGEDIEVTGEAAAAGLGQGEGEGSFQVDYTPEDDQAISRLCELGFERDLVIQVYFACDKNEEAAANILFSDHAD [M158A;G159A;Y160A]	disrupting interaction strength
MVSLTFKNFKKEKVPLDLEPSNTILETKTKLAQSISCEESQIKLIYSGKVLQDSKTVSECGLKDGDQVVFMVSQKKSTKTKVTEPPIAPESATTPGRENSTEASPSTDASAAPAATAPEGSQPQEEQTATTERTESASTPGFVVGTERNETIERIMEAAAQREEVERALRAAFNNPDRAVEYLLMGIPENLRQPEPQQQTAAAAEQPSTAATTAEQPAEDDLFAQAAQGGNASSGALGTTGGATDAAQGGPPGSIGLTVEDLLSLRQVVSGNPEALAPLLENISARYPQLREHIMANPEVFVSMLLEAVGDNMQDVMEGADDMVEGEDIEVTGEAAAAGLGQGEGEGSFQVDYTPEDDQAISRLCEAAAERDLVIQVYFACDKNEEAAANILFSDHAD [M158A;G159A;Y160A;L367A;G368A;F369A]	disrupting interaction strength
MVSLTFKNFKKEKVPLDLEPSNTILETKTKLAQSISCEESQIKLIYSGKVLQDSKTVSECGLKDGDQVVFMVSQKKSTKTKVTEPPIAPESATTPGRENSTEASPSTDASAAPAATAPEGSQPQEEQTATTERTESASTPGFVVGTERNETIERIMEMGYQREEVERALRAAFNNPDRAVEYLLMGIPENLRQPEPQQQTAAAAEQPSTAATTAEQPAEDDLFAQAAQGGNASSGALGTTGGATDAAQGGPPGSIGLTVEDLLSLRQVVSGNPEALAPLLENISARYPQLREHIMANPEVFVSMLLEAVGDNMQDVMEGADDMVEGEDIEVTGEAAAAGLGQGEGEGSFQVDYTPEDDQAISRLCEAAAERDLVIQVYFACDKNEEAAANILFSDHAD [L367A;G368A;F369A]	with no effect

Variants of: B2
Conditions: with ubc_human UBC
Remark: another data set of the same source

Variant	effect of a mutation on the interaction
MVSLTFKNFKKEKVPLDLEPSNTILETKTKLAQSISCEESQIKLIYSGKVLQDSKTVSECGLKDGDQVVFMVSQKKSTKTKVTEPPIAPESATTPGRENSTEASPSTDASAAPAATAPEGSQPQEEQTATTERTESASTPGFVVGTERNETIERIMEAAAQREEVERALRAAFNNPDRAVEYLLMGIPENLRQPEPQQQTAAAAEQPSTAATTAEQPAEDDLFAQAAQGGNASSGALGTTGGATDAAQGGPPGSIGLTVEDLLSLRQVVSGNPEALAPLLENISARYPQLREHIMANPEVFVSMLLEAVGDNMQDVMEGADDMVEGEDIEVTGEAAAAGLGQGEGEGSFQVDYTPEDDQAISRLCELGFERDLVIQVYFACDKNEEAAANILFSDHAD [M158A;G159A;Y160A]	decreasing interaction strength
